According to patent publication US20120010151A1:
Where no end group is shown, it is not given here. The star is where a group is joined. Boc = CC(C)(C)OC(=O)*

Target: Wnt-5a receptors (on A2058 melanoma cells)
Assay: cell-based or functional assay

B1: Box5 (Wnt-5a-derived N-butyloxycarbonyl hexapeptide Met-Asp-Gly-Cys-Glu-Leu) (peptide)
peptide: Boc-MDGCEL
Q: With B1 as the binder, how does the inhibition of the Wnt-5a-induced Ca2+ signal (fura-2, A2058 melanoma cells, 100 uM Box5, 0.1 ug/ml Wnt-5a) read?
A: Its inhibition of the Wnt-5a-induced Ca2+ signal (fura-2, A2058 melanoma cells, 100 uM Box5, 0.1 ug/ml Wnt-5a) is > 70%.
